Bridges are numbered along the chain shown (N, C = ends). Where no end group is shown, it is not given here.
Assays:
Experiment in all cases: cell-based or functional assay
glucagon receptor = glucagon receptor (UniProt P47871 26-477, limits assumed)
GLP-1 receptor = GLP-1 receptor (UniProt P43220 24-463, limits assumed)
GIP receptor = biological target: T1, GIP receptor (UniProt P48546 22-466)
T1 sequence (looked up): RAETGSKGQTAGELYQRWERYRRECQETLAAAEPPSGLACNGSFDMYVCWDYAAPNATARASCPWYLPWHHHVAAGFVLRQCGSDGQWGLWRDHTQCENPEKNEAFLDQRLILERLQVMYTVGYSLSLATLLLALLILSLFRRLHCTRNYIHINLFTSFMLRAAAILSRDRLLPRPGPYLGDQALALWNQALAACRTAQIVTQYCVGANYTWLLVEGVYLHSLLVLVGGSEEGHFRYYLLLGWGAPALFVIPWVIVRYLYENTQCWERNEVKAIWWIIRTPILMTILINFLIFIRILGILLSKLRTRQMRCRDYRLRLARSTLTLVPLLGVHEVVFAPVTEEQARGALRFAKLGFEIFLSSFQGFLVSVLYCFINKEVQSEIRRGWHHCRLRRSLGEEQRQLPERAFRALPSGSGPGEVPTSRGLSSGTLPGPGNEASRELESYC

Chain of glucagon receptor (P47871 26-477 limits assumed): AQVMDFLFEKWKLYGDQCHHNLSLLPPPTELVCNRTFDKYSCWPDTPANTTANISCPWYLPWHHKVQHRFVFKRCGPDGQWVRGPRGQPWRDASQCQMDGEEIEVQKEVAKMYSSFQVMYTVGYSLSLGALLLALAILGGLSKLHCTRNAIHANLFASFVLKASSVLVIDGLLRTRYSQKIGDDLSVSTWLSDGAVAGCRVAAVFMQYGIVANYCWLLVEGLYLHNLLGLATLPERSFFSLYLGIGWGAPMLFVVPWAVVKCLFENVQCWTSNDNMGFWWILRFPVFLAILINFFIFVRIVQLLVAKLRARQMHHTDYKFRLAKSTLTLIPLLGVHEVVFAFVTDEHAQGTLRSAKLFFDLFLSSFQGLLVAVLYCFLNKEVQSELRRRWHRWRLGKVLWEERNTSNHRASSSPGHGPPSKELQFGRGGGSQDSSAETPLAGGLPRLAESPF

Binder	EC50 (glucagon receptor) [nM]	relative activity (glucagon receptor) [%]	EC50 (GLP-1 receptor) [nM]	relative activity (GLP-1 receptor) [%]	EC50 (GIP receptor) [nM]	relative activity (GIP receptor) [%]
YAEGTFISDYSIAMDEIHQKDFVNWLLAQ-NH2 (lactam 16-20; N-terminus assumed; SMILES CC[C@H](C)[C@H](NC(=O)[C@H](CO)NC(=O)[C@H](Cc1ccc(O)cc1)NC(=O)[C@H](CC(=O)O)NC(=O)[C@H](CO)NC(=O)[C@@H](NC(=O)[C@H](Cc1ccccc1)NC(=O)[C@@H](NC(=O)CNC(=O)[C@H](CCC(=O)O)NC(=O)[C@H](C)NC(=O)[C@@H](N)Cc1ccc(O)cc1)[C@@H](C)O)[C@@H](C)CC)C(=O)N[C@@H](C)C(=O)N[C@@H](CCSC)C(=O)N[C@@H](CC(=O)O)C(=O)N[C@H]1CCC(=O)NCCCC[C@@H](C(=O)N[C@@H](CC(=O)O)C(=O)N[C@@H](Cc2ccccc2)C(=O)N[C@H](C(=O)N[C@@H](CC(N)=O)C(=O)N[C@@H](Cc2c[nH]c3ccccc23)C(=O)N[C@@H](CC(C)C)C(=O)N[C@@H](CC(C)C)C(=O)N[C@@H](C)C(=O)N[C@@H](CCC(N)=O)C(N)=O)C(C)C)NC(=O)[C@H](CCC(N)=O)NC(=O)[C@H](Cc2c[nH]cn2)NC(=O)[C@H]([C@@H](C)CC)NC1=O) [mt-96]	61.7	0.29	92.9	0.04	0.058	84.5
HSQGTFISDYSKALDEIHQKEFIAWLMNT-NH2 (lactam 16-20; N-terminus assumed; SMILES CC[C@H](C)[C@H](NC(=O)[C@H](Cc1ccccc1)NC(=O)[C@H](CCC(=O)O)NC(=O)[C@@H]1CCCCNC(=O)CC[C@H](NC(=O)[C@H](CC(=O)O)NC(=O)[C@H](CC(C)C)NC(=O)[C@H](C)NC(=O)[C@H](CCCCN)NC(=O)[C@H](CO)NC(=O)[C@H](Cc2ccc(O)cc2)NC(=O)[C@H](CC(=O)O)NC(=O)[C@H](CO)NC(=O)[C@@H](NC(=O)[C@H](Cc2ccccc2)NC(=O)[C@@H](NC(=O)CNC(=O)[C@H](CCC(N)=O)NC(=O)[C@H](CO)NC(=O)[C@@H](N)Cc2c[nH]cn2)[C@@H](C)O)[C@@H](C)CC)C(=O)N[C@@H]([C@@H](C)CC)C(=O)N[C@@H](Cc2c[nH]cn2)C(=O)N[C@@H](CCC(N)=O)C(=O)N1)C(=O)N[C@@H](C)C(=O)N[C@@H](Cc1c[nH]c2ccccc12)C(=O)N[C@@H](CC(C)C)C(=O)N[C@@H](CCSC)C(=O)N[C@@H](CC(N)=O)C(=O)N[C@H](C(N)=O)[C@@H](C)O) [mt-108]	0.19	68.4	0.32	12.5	4.78	0.52
YXEGTFISDYSIAMDKIHQQDFVNWLLAQKGKKNWLKHNITQ (C-terminal amide) [mt-100]	1460	0.01	552	0.01	0.016	306
HAEGTFISDYSIAMDEIHQKDFVNWLLAQ-NH2 (lactam 16-20; N-terminus assumed; SMILES CC[C@H](C)[C@H](NC(=O)[C@H](CO)NC(=O)[C@H](Cc1ccc(O)cc1)NC(=O)[C@H](CC(=O)O)NC(=O)[C@H](CO)NC(=O)[C@@H](NC(=O)[C@H](Cc1ccccc1)NC(=O)[C@@H](NC(=O)CNC(=O)[C@H](CCC(=O)O)NC(=O)[C@H](C)NC(=O)[C@@H](N)Cc1c[nH]cn1)[C@@H](C)O)[C@@H](C)CC)C(=O)N[C@@H](C)C(=O)N[C@@H](CCSC)C(=O)N[C@@H](CC(=O)O)C(=O)N[C@H]1CCC(=O)NCCCC[C@@H](C(=O)N[C@@H](CC(=O)O)C(=O)N[C@@H](Cc2ccccc2)C(=O)N[C@H](C(=O)N[C@@H](CC(N)=O)C(=O)N[C@@H](Cc2c[nH]c3ccccc23)C(=O)N[C@@H](CC(C)C)C(=O)N[C@@H](CC(C)C)C(=O)N[C@@H](C)C(=O)N[C@@H](CCC(N)=O)C(N)=O)C(C)C)NC(=O)[C@H](CCC(N)=O)NC(=O)[C@H](Cc2c[nH]cn2)NC(=O)[C@H]([C@@H](C)CC)NC1=O) [mt-95]	280	0.04	48.9	0.08	0.465	10.5
YAEGTFTSDYSIYMDEIHQKDFVNWLLAQ-NH2 (lactam 16-20; N-terminus assumed; SMILES CC[C@H](C)[C@H](NC(=O)[C@H](CO)NC(=O)[C@H](Cc1ccc(O)cc1)NC(=O)[C@H](CC(=O)O)NC(=O)[C@H](CO)NC(=O)[C@@H](NC(=O)[C@H](Cc1ccccc1)NC(=O)[C@@H](NC(=O)CNC(=O)[C@H](CCC(=O)O)NC(=O)[C@H](C)NC(=O)[C@@H](N)Cc1ccc(O)cc1)[C@@H](C)O)[C@@H](C)O)C(=O)N[C@@H](Cc1ccc(O)cc1)C(=O)N[C@@H](CCSC)C(=O)N[C@@H](CC(=O)O)C(=O)N[C@H]1CCC(=O)NCCCC[C@@H](C(=O)N[C@@H](CC(=O)O)C(=O)N[C@@H](Cc2ccccc2)C(=O)N[C@H](C(=O)N[C@@H](CC(N)=O)C(=O)N[C@@H](Cc2c[nH]c3ccccc23)C(=O)N[C@@H](CC(C)C)C(=O)N[C@@H](CC(C)C)C(=O)N[C@@H](C)C(=O)N[C@@H](CCC(N)=O)C(N)=O)C(C)C)NC(=O)[C@H](CCC(N)=O)NC(=O)[C@H](Cc2c[nH]cn2)NC(=O)[C@H]([C@@H](C)CC)NC1=O) [mt-98]	957	0.01	2.82	1.42	0.196	25
YSQGTFTSDYSKYLDEIHQKDFVNWLLAQ-NH2 [mt-109]	0.13	76.9	3.86	0.78	0.658	6.99
YAEGTFISDYSIAMDKIHQQDFVNWLLAQKGKKNWLKHNITQ-NH2 [mt-99]	23300	0	4550	0	0.049	100
HSQGTFISDYSKYLDEIHQKEFIAWLMNT-NH2 (lactam 16-20; N-terminus assumed; SMILES CC[C@H](C)[C@H](NC(=O)[C@H](Cc1ccccc1)NC(=O)[C@H](CCC(=O)O)NC(=O)[C@@H]1CCCCNC(=O)CC[C@H](NC(=O)[C@H](CC(=O)O)NC(=O)[C@H](CC(C)C)NC(=O)[C@H](Cc2ccc(O)cc2)NC(=O)[C@H](CCCCN)NC(=O)[C@H](CO)NC(=O)[C@H](Cc2ccc(O)cc2)NC(=O)[C@H](CC(=O)O)NC(=O)[C@H](CO)NC(=O)[C@@H](NC(=O)[C@H](Cc2ccccc2)NC(=O)[C@@H](NC(=O)CNC(=O)[C@H](CCC(N)=O)NC(=O)[C@H](CO)NC(=O)[C@@H](N)Cc2c[nH]cn2)[C@@H](C)O)[C@@H](C)CC)C(=O)N[C@@H]([C@@H](C)CC)C(=O)N[C@@H](Cc2c[nH]cn2)C(=O)N[C@@H](CCC(N)=O)C(=O)N1)C(=O)N[C@@H](C)C(=O)N[C@@H](Cc1c[nH]c2ccccc12)C(=O)N[C@@H](CC(C)C)C(=O)N[C@@H](CCSC)C(=O)N[C@@H](CC(N)=O)C(=O)N[C@H](C(N)=O)[C@@H](C)O) [mt-107]	0.07	186	24.8	0.16	3.37	0.74
HAEGTFTSDYSIYMDEIHQKDFVNWLLAQ-NH2 (lactam 16-20; N-terminus assumed; SMILES CC[C@H](C)[C@H](NC(=O)[C@H](CO)NC(=O)[C@H](Cc1ccc(O)cc1)NC(=O)[C@H](CC(=O)O)NC(=O)[C@H](CO)NC(=O)[C@@H](NC(=O)[C@H](Cc1ccccc1)NC(=O)[C@@H](NC(=O)CNC(=O)[C@H](CCC(=O)O)NC(=O)[C@H](C)NC(=O)[C@@H](N)Cc1c[nH]cn1)[C@@H](C)O)[C@@H](C)O)C(=O)N[C@@H](Cc1ccc(O)cc1)C(=O)N[C@@H](CCSC)C(=O)N[C@@H](CC(=O)O)C(=O)N[C@H]1CCC(=O)NCCCC[C@@H](C(=O)N[C@@H](CC(=O)O)C(=O)N[C@@H](Cc2ccccc2)C(=O)N[C@H](C(=O)N[C@@H](CC(N)=O)C(=O)N[C@@H](Cc2c[nH]c3ccccc23)C(=O)N[C@@H](CC(C)C)C(=O)N[C@@H](CC(C)C)C(=O)N[C@@H](C)C(=O)N[C@@H](CCC(N)=O)C(N)=O)C(C)C)NC(=O)[C@H](CCC(N)=O)NC(=O)[C@H](Cc2c[nH]cn2)NC(=O)[C@H]([C@@H](C)CC)NC1=O) [mt-97]	4.08	3.19	2.36	1.27	1.75	2.81
